Test results from FireProtDB (doi:10.1021/bi00212a026).

Conditions: Bacillus amyloliquefaciens; pH 6.3; 25 °C; Urea; Fluorescence; MES 50 mM; NaCl 0.15 M; reversible: yes; whole UniProt chain shown

B1: Ribonuclease wild type, P00648 (protein)
chain: MMKMEGIALKKRLSWISVCLLVLVSAAGMLFSTAAKTETSSHKAHTEAQVINTFDGVADYLQTYHKLPDNYITKSEAQALGWVASKGNLADVAPGKSIGGDIFSNREGKLPGKSGRTWREADINYTSGFRNSDRILYSSDWLIYKTTDHYQTFTKIR
denaturant m value: 1.92 kcal/mol/M
denaturant midpoint (higher = more stable): 4.58 M
unfolding free energy: 8.79 kcal/mol
